Measurements as given in the supplement of paper PMC5998384.

What was measured:
HeLa Kyoto [1] = assay: melting temperature (median over replicates), in situ; higher = more thermally stable
HeLa Kyoto [2] = assay: solubility in G1/S (NP-40 vs SDS abundance) (log2 ratio); higher = more soluble; conditions: cell cycle stage: G1/S
HeLa Kyoto [3] = assay: solubility change mitosis vs G1/S (difference of NP-40 vs SDS log2 ratios) (log2 ratio difference); higher = more soluble in mitosis
HeLa Kyoto [4] = assay: thermal stability score vs G1/S (z-score of summed log2 fold changes over temperatures); higher = more thermally stable than in G1/S
[5] = cell cycle stage: early G1 (4.5 h after nocodazole release)
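Wherever melting temperature (median over replicates), in situ is given: HeLa Kyoto cells synchronized by double thymidine or nocodazole block, proteins quantified by TMT10plex mass spectrometry, three independent biological replicates.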
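Wherever solubility change mitosis vs G1/S (difference of NP-40 vs SDS log2 ratios) is given: synchronized HeLa Kyoto cells (double thymidine block for G1/S, nocodazole release for mitosis), protein amounts in NP-40 versus SDS lysates quantified by mass spectrometry, three biological replicates.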
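Wherever solubility in G1/S (NP-40 vs SDS abundance) is given: HeLa Kyoto cells arrested at G1/S by double thymidine block, proteins quantified by TMT10plex mass spectrometry in mild NP-40 versus SDS extracts, three biological replicates.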
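Wherever thermal stability score vs G1/S (z-score of summed log2 fold changes over temperatures) is given: synchronized HeLa Kyoto cells, proteins quantified by TMT10plex mass spectrometry, three biological replicates, mitosis taken 0.5 h after nocodazole release, G1/S directly after double thymidine block.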

Which melting temperature (HeLa Kyoto [1]; cell cycle stage: G1/S) does the source give for “MTSHYVIAIFALMSSCLATAGPEPGALCELSPVSASHPVQALMESFTVLSGCASRGTTGLPQEVHVLNLRTAGQGPGQLQREVTLHLNPISSVHIHHKSVVFLLNSPHPLVWHLKTERLATGVSRLFLVSEGSVVQFSSANFSLTAETEERNFPHGNEHLLNWARKEYGAVTSFTELKIARNIYIKVGEDQVFPPKCNIGKNFLSLNYLAEYLQPKAAEGCVMSSQPQNEEVHIIELITPNSNPYSAFQVDITIDIRPSQEDLEVVKNLILILKCKKSVNWVIKSFDVKGSLKIIAPNSIGFGKESERSMTMTKSIRDDIPSTQGNLVKWALDNGYSPITSYTMAPVANRFHLRLENNAEEMGDEEVHTIPPELRILLDPGALPALQNPPIRGGEGQNGGLPFPFPDISRRVWNEEGEDGLPRPKDPVIPSIQLFPGLREPEEVQGSVDIALSVKCDNEKMIVAVEKDSFQASGYSGMDVTLLDPTCKAKMNGTHFVLESPLNGCGTRPRWSALDGVVYYNSIVIQVPALGDSSGWPDGYEDLESGDNGFPGDMDEGDASLFTRPEIVVFNCSLQQVRNPSSFQEQPHGNITFNMELYNTDLFLVPSQGVFSVPENGHVYVEVSVTKAEQELGFAIQTCFISPYSNPDRMSHYTIIENICPKDESVKFYSPKRVHFPIPQADMDKKRFSFVFKPVFNTSLLFLQCELTLCTKMEKHPQKLPKCVPPDEACTSLDASIIWAMMQNKKTFTKPLAVIHHEAESKEKGPSMKEPNPISPPIFHGLDTLTVMGIAFAAFVIGALLTGALWYIYSHTGETAGRQQVPTSPPASENSSAAHSIGSTQSTPCSSSSTA [TGFBR3]” here?
Its melting temperature is 53.8 °C.

What about the melting temperature (HeLa Kyoto [1]; cell cycle stage: mitosis) of the same sequence?
Its melting temperature is 54.4 °C.

And the “solubility in G1/S (log2)” value (HeLa Kyoto [2])?
The value was -0.155.

And the “solubility change mitosis (log2)” value (HeLa Kyoto [3])?
The value was -0.094.

What about the thermal stability score (HeLa Kyoto [4]; [5]) of the same sequence?
The thermal stability score was 1.1.

And the thermal stability score (HeLa Kyoto [4]; cell cycle stage: mitosis)?
Its thermal stability score is 2.26.

For “MTSKKLVNSVAGCADDALAGLVACNPNLQLLQGHRVALRSDLDSLKGRVALLSGGGSGHEPAHAGFIGKGMLTGVIAGAVFTSPAVGSILAAIRAVAQAGTVGTLLIVKNYTGDRLNFGLAREQARAEGIPVEMVVIGDDSAFTVLKKAGRRGLCGTVLIHKVAGALAEAGVGLEEIAKQVNVVAKAMGTLGVSLSSCSVPGSKPTFELSADEVELGLGIHGEAGVRRIKMATADEIVKLMLDHMTNTTNASHVPVQPGSSVVMMVNNLGGLSFLELGIIADATVRSLEGRGVKIARALVGTFMSALEMPGISLTLLLVDEPLLKLIDAETTAAAWPNVAAVSITGRKRSRVAPAEPQEAPDSTAAGGSASKRMALVLERVCSTLLGLEEHLNALDRAAGDGDCGTTHSRAARAIQEWLKEGPPPASPAQLLSKLSVLLLEKMGGSSGALYGLFLTAAAQPLKAKTSLPAWSAAMDAGLEAMQKYGKAAPGDRTMLDSLWAAGQELQAWKSPGADLLQVLTKAVKSAEAAAEATKNMEAGAGRASYISSARLEQPDPGAVAAAAILRAILEVLQS [TKFC]”, which melting temperature (HeLa Kyoto [1]; cell cycle stage: G1/S) is on record?
Its melting temperature is 54.8 °C.

And the melting temperature (HeLa Kyoto [1]; cell cycle stage: mitosis)?
Its melting temperature is 55 °C.

What about the “solubility in G1/S (log2)” value (HeLa Kyoto [2]) of the same sequence?
Its value is 0.321.

What about the “solubility change mitosis (log2)” value (HeLa Kyoto [3]) of the same sequence?
The value was -0.0666.

And the thermal stability score (HeLa Kyoto [4]; [5])?
The thermal stability score was 1.34.

And the thermal stability score (HeLa Kyoto [4]; cell cycle stage: mitosis)?
Its thermal stability score is 0.558.

How did the melting temperature (HeLa Kyoto [1]; cell cycle stage: G1/S) turn out when “MTSLMPGAGLLPIPTPNPLTTLGVSLSSLGAIPAAALDPNIATLGEIPQPPLMGNVDPSKIDEIRRTVYVGNLNSQTTTADQLLEFFKQVGEVKFVRMAGDETQPTRFAFVEFADQNSVPRALAFNGVMFGDRPLKINHSNNAIVKPPEMTPQAAAKELEEVMKRVREAQSFISAAIEPESGKSNERKGGRSRSHTRSKSRSSSKSHSRRKRSQSKHRSRSHNRSRSRQKDRRRSKSPHKKRSKSRERRKSRSRSHSRDKRKDTREKIKEKERVKEKDREKEREREKEREKEKERGKNKDRDKEREKDREKDKEKDREREREKEHEKDRDKEKEKEQDKEKEREKDRSKEIDEKRKKDKKSRTPPRSYNASRRSRSSSRERRRRRSRSSSRSPRTSKTIKRKSSRSPSPRSRNKKDKKREKERDHISERRERERSTSMRKSSNDRDGKEKLEKNSTSLKEKEHNKEPDSSVSKEVDDKDAPRTEENKIQHNGNCQLNEENLSTKTEAV [SREK1]” was run?
The melting temperature was 48.9 °C.

What about the melting temperature (HeLa Kyoto [1]; cell cycle stage: mitosis) of the same sequence?
Its melting temperature is 50.6 °C.

What about the “solubility in G1/S (log2)” value (HeLa Kyoto [2]) of the same sequence?
Its value is -0.849.

What about the “solubility change mitosis (log2)” value (HeLa Kyoto [3]) of the same sequence?
Its value is 0.262.

What about the thermal stability score (HeLa Kyoto [4]; [5]) of the same sequence?
Its thermal stability score is 1.86.

What about the thermal stability score (HeLa Kyoto [4]; cell cycle stage: mitosis) of the same sequence?
Its thermal stability score is 4.67.

Which results are given for “MTTEKSLVTEAENSQHQQKEEGEEAINSGQQEPQQEESCQTAAEGDNWCEQKLKASNGDTPTHEDLTKNKERTSESRGLSRLFSSFLKRPKSQVSEEEGKEVESDKEKGEGGQKEIEFGTSLDEEIILKAPIAAPEPELKTDPSLDLHSLSSAETQPAQEELREDPDFEIKEGEGLEECSKIEVKEESPQSKAETELKASQKPIRKHRNMHCKVSLLDDTVYECVVEKHAKGQDLLKRVCEHLNLLEEDYFGLAIWDNATSKTWLDSAKEIKKQVRGVPWNFTFNVKFYPPDPAQLTEDITRYYLCLQLRQDIVAGRLPCSFATLALLGSYTIQSELGDYDPELHGVDYVSDFKLAPNQTKELEEKVMELHKSYRSMTPAQADLEFLENAKKLSMYGVDLHKAKDLEGVDIILGVCSSGLLVYKDKLRINRFPWPKVLKISYKRSSFFIKIRPGEQEQYESTIGFKLPSYRAAKKLWKVCVEHHTFFRLTSTDTIPKSKFLALGSKFRYSGRTQAQTRQASALIDRPAPHFERTASKRASRSLDGAAAVDSADRSPRPTSAPAITQGQVAEGGVLDASAKKTVVPKAQKETVKAEVKKEDEPPEQAEPEPTEAWKVEKTHIEVTVPTSNGDQTQKLAEKTEDLIRMRKKKRERLDGENIYIRHSNLMLEDLDKSQEEIKKHHASISELKKNFMESVPEPRPSEWDKRLSTHSPFRTLNINGQIPTGEGPPLVKTQTVTISDNANAVKSEIPTKDVPIVHTETKTITYEAAQTDDNSGDLDPGVLLTAQTITSETPSSTTTTQITKTVKGGISETRIEKRIVITGDADIDHDQVLVQAIKEAKEQHPDMSVTKVVVHQETEIADE [EPB41]”?
melting temperature (HeLa Kyoto [1]; cell cycle stage: G1/S): 51.6 °C; melting temperature (HeLa Kyoto [1]; cell cycle stage: mitosis): 51.6 °C; solubility in G1/S (log2) (HeLa Kyoto [2]): -0.0892; solubility change mitosis (log2) (HeLa Kyoto [3]): -0.0541; thermal stability score (HeLa Kyoto [4]; [5]): -0.449; thermal stability score (HeLa Kyoto [4]; cell cycle stage: mitosis): -0.552

Which results are given for “MTTSHQPQDRYKAVWLIFFMLGLGTLLPWNFFMTATQYFTNRLDMSQNVSLVTAELSKDAQASAAPAAPLPERNSLSAIFNNVMTLCAMLPLLLFTYLNSFLHQRIPQSVRILGSLVAILLVFLITAILVKVQLDALPFFVITMIKIVLINSFGAILQGSLFGLAGLLPASYTAPIMSGQGLAGFFASVAMICAIASGSELSESAFGYFITACAVIILTIICYLGLPRLEFYRYYQQLKLEGPGEQETKLDLISKGEEPRAGKEESGVSVSNSQPTNESHSIKAILKNISVLAFSVCFIFTITIGMFPAVTVEVKSSIAGSSTWERYFIPVSCFLTFNIFDWLGRSLTAVFMWPGKDSRWLPSLVLARLVFVPLLLLCNIKPRRYLTVVFEHDAWFIFFMAAFAFSNGYLASLCMCFGPKKVKPAEAETAGAIMAFFLCLGLALGAVFSFLFRAIV [SLC29A1]”?
melting temperature (HeLa Kyoto [1]; cell cycle stage: G1/S): 58.4 °C; melting temperature (HeLa Kyoto [1]; cell cycle stage: mitosis): 61.1 °C; solubility in G1/S (log2) (HeLa Kyoto [2]): -0.149; solubility change mitosis (log2) (HeLa Kyoto [3]): -0.151; thermal stability score (HeLa Kyoto [4]; [5]): 1.53; thermal stability score (HeLa Kyoto [4]; cell cycle stage: mitosis): 0.495
